Results from patent US20150050278A1.

Columns and labels:
gp140 [1] = assay: ELISA (FIG. 10)
gp140 [2] = assay: ELISA on gp140, OD405
nucleolin = nucleolin (UniProt P19338); assay: ELISA (FIG. 11)

| Binder | affinity (gp140 [1]) [nM] | EC50 (read off the curve) (gp140 [2]) [nM] | affinity (nucleolin) [nM] |
| --- | --- | --- | --- |
| gg37 (designed binder) APELLGGPSVFLFPPTPKDTLMISRTPEVTCVVVDVSHEDPEVKFNWYVDGVEVHNAKTKPREEQYNSTYGVSSGLTVLHQDWLNGKEYKCKVSNKALPAPIEKTISKAKGQPREPQVYTSPPSRDELTKNQVSLRCHVKGFYPSDIAVEWESNGQGARGGMNWFDPWVPVLDSDGSFFLYGKLTVDKSRWQQGNVFSCSVMHEALHNHYTQKSLSLSPGK | 50 | 80 |  |
| gn1 (designed binder) APELLGGPSVFLFPPSPKDTLMISRTPEVTCVVVDVSHEDPEVKFNWYVDGVEVHNAKTKPREEQYNSTYSVASLLTVLHQDWLNGKEYKCKVSNKALPAPIEKTISKAKGQPREPQVYTSPPSRDELTKNQVSLRCHVKGFYPSDIAVEWESNGQGAKGSSGSTWGYGMDVWVPVLDSDSSFFLYSKLTVDKSRWQQGNVFSCSVMHEALHNHYTQKSLSLSPGK |  |  | 50 |
